Key:
[1] = biological target: GST-Rheb G63A
[2] = biological target: GST-Rheb S21L
[3] = biological target: GST-Rheb G29S
[4] = biological target: GST-Rheb E40K
[5] = biological target: GST-Rheb Q64L
[6] = biological target: GST-Rheb Y35N
[7] = biological target: GST-Rheb wild type (recombinant, human Rheb)
[8] = biological target: GST-Rheb T23M

GST-Rheb wild type (recombinant, human Rheb), sequence (chain, as listed by the source): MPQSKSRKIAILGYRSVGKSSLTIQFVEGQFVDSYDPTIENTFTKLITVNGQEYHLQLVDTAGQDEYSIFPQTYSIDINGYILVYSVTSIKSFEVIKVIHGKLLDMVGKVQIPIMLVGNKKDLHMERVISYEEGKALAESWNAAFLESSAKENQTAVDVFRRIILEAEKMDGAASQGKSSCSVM

B1: FLAG-TSC1 and FLAG-TSC2 (TSC complex) (protein)
chain 1: MAQQANVGELLAMLDSPMLGVRDDVTAVFKENLNSDRGPMLVNTLVDYYLETSSQPALHILTTLQEPHDKHLLDRINEYVGKAATRLSILSLLGHVIRLQPSWKHKLSQAPLLPSLLKCLKMDTDVVVLTTGVLVLITMLPMIPQSGKQHLLDFFDIFGRLSSWCLKKPGHVAEVYLVHLHASVYALFHRLYGMYPCNFVSFLRSHYSMKENLETFEEVVKPMMEHVRIHPELVTGSKDHELDPRRWKRLETHDVVIECAKISLDPTEASYEDGYSVSHQISARFPHRSADVTTSPYADTQNSYGCATSTPYSTSRLMLLNMPGQLPQTLSSPSTRLITEPPQATLWSPSMVCGMTTPPTSPGNVPPDLSHPYSKVFGTTAGGKGTPLGTPATSPPPAPLCHSDDYVHISLPQATVTPPRKEERMDSARPCLHRQHHLLNDRGSEEPPGSKGSVTLSDLPGFLGDLASEEDSIEKDKEEAAISRELSEITTAEAEPVVPRGGFDSPFYRDSLPGSQRKTHSAASSSQGASVNPEPLHSSLDKLGPDTPKQAFTPIDLPCGSADESPAGDRECQTSLETSIFTPSPCKIPPPTRVGFGSGQPPPYDHLFEVALPKTAHHFVIRKTEELLKKAKGNTEEDGVPSTSPMEVLDRLIQQGADAHSKELNKLPLPSKSVDWTHFGGSPPSDEIRTLRDQLLLLHNQLLYERFKRQQHALRNRRLLRKVIKAAALEEHNAAMKDQLKLQEKDIQMWKVSLQKEQARYNQLQEQRDTMVTKLHSQIRQLQHDREEFYNQSQELQTKLEDCRNMIAELRIELKKANNKVCHTELLLSQVSQKLSNSESVQQQMEFLNRQLLVLGEVNELYLEQLQNKHSDTTKEVEMMKAAYRKELEKNRSHVLQQTQRLDTSQKRILELESHLAKKDHLLLEQKKYLEDVKLQARGQLQAAESRYEAQKRITQVFELEILDLYGRLEKDGLLKKLEEEKAEAAEAAEERLDCCNDGCSDSMVGHNEEASGHNGETKTPRPSSARGSSGSRGGGGSSSSSSELSTPEKPPHQRAGPFSSRWETTMGEASASIPTTVGSLPSSKSFLGMKARELFRNKSESQCDEDGMTSSLSESLKTELGKDLGVEAKIPLNLDGPHPSPPTPDSVGQLHIMDYNETHHEHS
chain 2: not shown
With B1 the “GAP assay: hydrolysis of Rheb-bound [alpha-32P]GTP to GDP (thin-layer chromatography)” value (“GAP assay: hydrolysis of Rheb-bound” below) [1] was “TSC1/TSC2 were completely unable to promote hydrolysis of GTP bound to the S21L, T23M, Y35N, E40K and G63A mutants”, the “GAP assay: hydrolysis of Rheb-bound” value [2] was “TSC1/TSC2 were completely unable to promote hydrolysis of GTP bound to the S21L, T23M, Y35N, E40K and G63A mutants” and the “GAP assay: hydrolysis of Rheb-bound” value [3] was “partial resistance to them was seen for Rheb mutants G29S and Q64L”. The “GAP assay: hydrolysis of Rheb-bound” value [4] was “TSC1/TSC2 were completely unable to promote hydrolysis of GTP bound to the S21L, T23M, Y35N, E40K and G63A mutants”, the “GAP assay: hydrolysis of Rheb-bound” value [5] was “partial resistance to them was seen for Rheb mutants G29S and Q64L” and the “GAP assay: hydrolysis of Rheb-bound” value [6] was “TSC1/TSC2 were completely unable to promote hydrolysis of GTP bound to the S21L, T23M, Y35N, E40K and G63A mutants”. For the same protein, the “GAP assay: hydrolysis of Rheb-bound” value [7] was “Incubation with FLAG-TSC1 and FLAG-TSC2 led to hydrolysis of Rheb-GTP into Rheb-GDP” and the “GAP assay: hydrolysis of Rheb-bound” value [8] was “TSC1/TSC2 were completely unable to promote hydrolysis of GTP bound to the S21L, T23M, Y35N, E40K and G63A mutants”.

Reference: US20230212237
